Earlier results, collected in paper PMC9406010.

How the values were obtained:
[1] = biological target: CCRL2 (Homo sapiens) (UniProt O00421)
[2] = biological target: GPR1 (Homo sapiens) (UniProt P46091)
[3] = biological target: CMKLR1 (Homo sapiens) (UniProt Q99788)
Sequence of CMKLR1 (Homo sapiens) (Q99788 whole entry): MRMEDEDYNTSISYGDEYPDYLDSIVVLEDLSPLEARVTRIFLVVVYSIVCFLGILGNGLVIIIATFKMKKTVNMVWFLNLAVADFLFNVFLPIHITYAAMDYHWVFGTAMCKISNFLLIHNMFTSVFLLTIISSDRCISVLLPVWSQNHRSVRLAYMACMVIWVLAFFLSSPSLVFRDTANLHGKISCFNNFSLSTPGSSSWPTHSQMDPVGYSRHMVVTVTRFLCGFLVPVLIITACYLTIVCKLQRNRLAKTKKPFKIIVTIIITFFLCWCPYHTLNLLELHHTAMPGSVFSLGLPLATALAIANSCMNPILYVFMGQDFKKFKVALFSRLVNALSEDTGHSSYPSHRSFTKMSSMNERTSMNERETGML

Sequence of Chemerin (Q99969 21-157): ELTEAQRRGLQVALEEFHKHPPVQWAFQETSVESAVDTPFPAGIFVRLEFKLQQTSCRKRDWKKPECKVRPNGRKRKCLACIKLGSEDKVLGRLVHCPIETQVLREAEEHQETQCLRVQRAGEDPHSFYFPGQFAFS
Sequence of GPR1 (Homo sapiens) (P46091 whole entry): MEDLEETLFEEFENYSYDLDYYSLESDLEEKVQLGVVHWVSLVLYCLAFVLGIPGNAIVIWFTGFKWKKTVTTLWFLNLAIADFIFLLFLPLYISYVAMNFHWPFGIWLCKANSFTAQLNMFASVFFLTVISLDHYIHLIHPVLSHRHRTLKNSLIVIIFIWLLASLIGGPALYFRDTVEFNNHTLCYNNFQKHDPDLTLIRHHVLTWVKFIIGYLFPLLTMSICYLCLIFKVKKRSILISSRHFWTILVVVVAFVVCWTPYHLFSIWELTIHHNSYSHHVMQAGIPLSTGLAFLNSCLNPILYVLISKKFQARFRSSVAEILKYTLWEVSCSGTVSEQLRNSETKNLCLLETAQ
Sequence of CCRL2 (Homo sapiens) (O00421 whole entry): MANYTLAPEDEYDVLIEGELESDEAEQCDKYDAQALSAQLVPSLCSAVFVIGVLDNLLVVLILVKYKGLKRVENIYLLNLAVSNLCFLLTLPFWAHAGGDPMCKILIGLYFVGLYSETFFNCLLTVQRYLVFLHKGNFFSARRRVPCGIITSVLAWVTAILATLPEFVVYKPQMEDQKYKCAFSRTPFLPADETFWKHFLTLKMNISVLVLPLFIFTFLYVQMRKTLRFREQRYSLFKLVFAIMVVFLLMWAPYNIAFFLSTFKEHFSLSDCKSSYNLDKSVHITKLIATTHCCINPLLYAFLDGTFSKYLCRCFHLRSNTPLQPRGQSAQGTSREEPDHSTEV

Kd [1]: 2.35 nM
Kd [2]: 0.21 nM
Kd [3]: 0.88 nM
Substance: Chemerin (from UniProt Q99969)
